Measured values published in US6379938B1, “Epoxide hydrolase” (Puratos N.V., priority 1997, dated 2002).

Columns and labels:
[1] = Determination of the cis-epoxysuccinate-hydrolase activity (L-tartaric acid formed, HPLC); format: biochemical; conditions: cells of Escherichia coli DH10B containing plasmid pREHXS, overnight culture; 37° C., pH 8.0; activity = amount of L(+)-tartaric acid formed in a day by 1 gram of dried cells
Experimental: The enzymatic reaction is performed at 37° C. in a final volume of 9.3 ml that contains the following components: 0.7 ml of 0.1N Tris.HCl buffer pH 8.0, 2.6 ml of a 1.14% Triton X-100 solution, 5.0 ml of a 30% sodium cis-epoxysuccinate solution and 1.0 ml of the cell suspension. The reaction is stopped by diluting the mixture between 100 and 500 times with H2O acidified to pH 2.2 with H3PO4.
The amount of L-tartaric acid formed during the reaction is determined by HPLC at room temperature on a Vydac C18 column (cat no. 201HS3410) with a flow rate between 400 and 600 μl/min and a sample volume of 20 μl. The solvent is the same as the one used to dilute the samples. The detection of cis-epoxysuccinate and tartaric acid occurs at 210 nm.
Activity is expressed as the amount of L(+)-tartaric acid formed in a day by 1 gram of dried cells.
The Escherichia coli strain DH10B containing the plasmid pREHXS is cultivated overnight in 2×LB medium (Yeast Extract 1%, Bacto-tryptone 2%, NaCl 2%) supplemented with 100 μg/ml of ampicillin. The same strain with the pBluescriptSK(+) plasmid without insert is used as a control.
The activity of the cis-epoxysuccinate hydrolase is determined in the cells collected from the two cultures using the protocol described in example 1. No activity could be detected in the control. About 150 units is present in the strain expressing the cis-epoxysuccinate gene.

[2] = pH activity profile of the epoxide hydrolase (FIG. 5); format: biochemical; conditions: pH between 7.0 and 10 (FIG. 5)
Text: The isolated and purified epoxide hydrolase amino acid sequence according to the invention is also characterised by an advantageous pH activity profile having a high enzymatic activity (more than 80% of the optimum enzyme activity) between 7.0 and 10, preferably between 7.5 and 9.5 (see FIG. 5).
FIG. 5 represents the relative enzymatic activity of the enzyme according to the invention.
This enzymatic activity is advantageously maintained constant at a pH higher than 7, preferably at a pH comprised between 7.0 and 10, more preferably at a pH comprised between 7.5 and 9.5.

- activity of the cis-epoxysuccinate hydrolase [1]: About 150 units
B1: cis-epoxysuccinate hydrolase: 253 amino acid, 28 kDa epoxide hydrolase of Rhodococcus rhodochrous LMGP-18079, expressed in E. coli from plasmid pREHXS (protein)
chain: MQLNNANDNTQFRALLFDVQGTLTDFRSTLIEHGLSILGDRVDRELWEELVDQWRGCYRDELDSLVKQEKWRSVRAVYRDSLINLLAKFSDSFCATSAEVELLTDGWERLRSWPDVPSGLEQLRSKYLVAALTNADFSAIVNVGRSAKLQWDAVLSAQLFGAYKPHRSTYEGAATLLGIAPSEILMVASHAYDLEAAREVGAGTAYVRRPLEYGPTGRTEDVPDGRFDFLVDSISELADQLGCPRLGGTAGID
- enzymatic activity relative to the optimum enzyme activity [2]: more than 80%
